# Tests used:
# [1] = biological target: Human Bcl-2 protein (isoform 2 construct), N-terminal 6xHis tagged recombinant protein (human); assay: fluorescence polarisation; saturation experiments with FAM-Bid and Mcl-1 or Bcl-2 protein; assay buffer 100 mM potassium phosphate, pH 7.5, 100 ug/ml bovine gamma globulin, 0.02% sodium azide
# [2] = biological target: Human Bcl-2 protein (isoform 2 construct), N-terminal 6xHis tagged recombinant protein (human); assay: SPR; competitive solution binding: protein (20 nM) pre-incubated with tested BH3 peptide for at least 30 min, injected over immobilised biotin-Bim BH3 peptide; response at 30 s of dissociation
# [3] = biological target: Human Bcl-2 protein (isoform 2 construct), N-terminal 6xHis tagged recombinant protein (human); assay: fluorescence polarisation; competition: Mcl-1 (20 nM) or Bcl-2 (40 nM) pre-incubated with FAM-Bid (2 nM and 2.5 nM), tested BH3 peptide added, 2-3 h; 100 mM potassium phosphate, pH 7.5, 100 ug/ml bovine gamma globulin, 0.02% sodium azide; Ki calculated from IC50
Kd [1] [µM],IC50 [2] [µM],Ki [3] [µM],Substance
0.0063,–,–,21-residue Bid BH3 peptide labeled at the N-terminus with 6-carboxyfluorescein succinimidyl ester (FAM-Bid)
–,0.0512,0.0112,Bid BH3 peptide (residues 79-99)

# Reference: publication PMC3717276, “Optimization and validation of mitochondria-based functional assay as a useful tool to identify BH3-like molecules selectively targeting anti-apoptotic Bcl-2 proteins” (BMC Biotechnology, 2013)
